# Experiments:
# [1] = molecular target: human BTLA Fc (human) (UniProt Q7Z6A9); assay: SPR, BTLA Fc immobilised on CM5, bivalent fit
# [2] = molecular target: human BTLA Fc (human) (UniProt Q7Z6A9); assay: SPR, BTLA Fc immobilised on CM5, monovalent (Langmuir) fit
substance,measurement,setting,value
rhesus CMV UL144 Fc (Fc fusion),ka1 (bivalent analysis),[1],16600 M⁻¹ s⁻¹
same,kd1 (bivalent analysis),[1],0.031 s⁻¹
same,kd2 (bivalent analysis),[1],0.129 s⁻¹
same,Kd,[2],1.3 µM
same,koff,[2],0.0295 s⁻¹
same,kon,[2],22800 M⁻¹ s⁻¹
